Measured values taken from patent US20100076062.

B1: recombinant caspase 1 (Calbiochem) (protein)
chain: NPAMPTSSGSEGNVKLCSLEEAQRIWKQKSAEIYPIMDKSSRTRLALIICNEEFDSIPRRTGAEVDITGMTMLLQNLGYSVDVKKNLTASDMTTELEAFAHRPEHKTSDSTFLVFMSHGIREGICGKKHSEQVPDILQLNAIFNMLNTKNCPSLKDKPKVIIIQACRGDSPGVVWFKDSVGVSGNLSLPTTEEFEDDAIKKAHIEKDFIAFCSSTPDNVSWRHPTMGSVFIGRLIEHMQEYACSCDVEEIFRKVRFSFEQPDGRAQMPTTERVTLTRCFYLFPGH
B2: recombinant caspase 2 (Calbiochem) (protein)
chain: GPVCLQVKPCTPEFYQTHFQLAYRLQSRPRGLALVLSNVHFTGEKELEFRSGGDVDHSTLVTLFKLLGYDVHVLCDQTAQEMQEKLQNFAQLPAHRVTDSCIVALLSHGVEGAIYGVDGKLLQLQEVFQLFDNANCPSLQNKPKMFFIQACRGDETDRGVDQQDGKNHAGSPGCEESDAGKEKLPKMRLPTRSDMICGYACLKGTAAMRNTKRGSWYIEALAQVFSERACDMHVADMLVKVNALIKDREGYAPGTEFHRCKEMSEYCSTLCRHLYLFPGHPPT
B3: recombinant caspase 8 (Calbiochem) (protein)
chain: SESQTLDKVYQMKSKPRGYCLIINNHNFAKAREKVPKLHSIRDRNGTHLDAGALTTTFEELHFEIKPHDDCTVEQIYEILKIYQLMDHSNMDCFICCILSHGDKGIIYGTDGQEAPIYELTSQFTGLKCPSLAGKPKVFFIQACQGDNYQKGIPVETDSEEQPYLEMDLSSPQTRYIPDEADFLLGMATVNNCVSYRNPAEGTWYIQSLCQSLRERCPRGDDILTILTEVNYEVSNKDDKKNMGKQMPQPTFTLRKKLVFPSD
B4: recombinant caspase 10 (Calbiochem) (protein)
chain: VKTFLEALPQESWQNKHAGSNGNRATNGAPSLVSRGMQGASANTLNSETSTKRAAVYRMNRNHRGLCVIVNNHSFTSLKDRQGTHKDAEILSHVFQWLGFTVHIHNNVTKVEMEMVLQKQKCNPAHADGDCFVFCILTHGRFGAVYSSDEALIPIREIMSHFTALQCPRLAEKPKLFFIQACQGEEIQPSVSIEADALNPEQAPTSLQDSIPAEADFLLGLATVPGYVSFRHVEEGSWYIQSLCNHLKKLVPRMLKFLEKTMEIRGRKRTVWGAKQISATSLPTAISAQTPRPPMRRWSSVS
B5: recombinant caspase 9 (Calbiochem) (protein)
chain: MDEADRRLLRRCRLRLVEELQVDQLWDALLSRELFRPHMIEDIQRAGSGSRRDQARQLIIDLETRGSQALPLFISCLEDTGQDMLASFLRTNRQAAKLSKPTLENLTPVVLRPEIRKPEVLRPETPRPVDIGSGGFGDVGALESLRGNADLAYILSMEPCGHCLIINNVNFCRESGLRTRTGSNIDCEKLRRRFSSLHFMVEVKGDLTAKKMVLALLELAQQDHGALDCCVVVILSHGCQASHLQFPGAVYGTDGCPVSVEKIVNIFNGTSCPSLGGKPKLFFIQACGGEQKDHGFEVASTSPEDESPGSNPEPDATPFQEGLRTFDQLDAISSLPTPSDIFVSYSTFPGFVSWRDPKSGSWYVETLDDIFEQWAHSEDLQSLLLRVANAVSVKGIYKQMPGCFNFLRKKLFFKTS
B6: recombinant caspase 6 (Calbiochem) (protein)
chain: AFYKREMFDPAEKYKMDHRRRGIALIFNHERFFWHLTLPERRGTCADRDNLTRRFSDLGFEVKCFNDLKAEELLLKIHEVSTVSHADADCFVCVFLSHGEGNHIYAYDAKIEIQTLTGLFKGDKCHSLVGKPKIFIIQACRGNQHDVPVIPLDVVDNQTEKLDTNITEVDAASVYTLPAGADFLMCYSVAEGYYSHRETVNGSWYIQDLCEMLGKYGSSLEFTELLTLVNRKVSQRRVDFCKDPSAIGKKQVPCFASMLTKKLHFFPKSN
B7: recombinant caspase 3 (Calbiochem) (protein)
chain: SGISLDNSYKMDYPEMGLCIIINNKNFHKSTGMTSRSGTDVDAANLRETFRNLKYEVRNKNDLTREEIVELMRDVSKEDHSKRSSFVCVLLSHGEEGIIFGTNGPVDLKKITNFFRGDRCRSLTGKPKLFIIQACRGTELDCGIETDSGVDDDMACHKIPVEADFLYAYSTAPGYYSWRNSKDGSWFIQSLCAMLKQYADKLEFMHILTRVNRKVATEFESFSFDATFHAKKQIPCIVSMLTKELYFYH
B8: recombinant caspase 7 (Calbiochem) (protein)
chain: AKPDRSSFVPSLFSKKKKNVTMRSIKTTRDRVPTYQYNMNFEKLGKCIIINNKNFDKVTGMGVRNGTDKDAEALFKCFRSLGFDVIVYNDCSCAKMQDLLKKASEEDHTNAACFACILLSHGEENVIYGKDGVTPIKDLTAHFRGDRCKTLLEKPKLFFIQACRGTELDDGIQADSGPINDTDANPRYKIPVEADFLFAYSTVPGYYSWRSPGRGSWFVQALCSILEEHGKDLEIMQILTRVNDRVARHFESQSDDPHFHEKKQIPCVVSMLTKELYFSQ

Molecular target: HA-tagged human eIF5A1 (wild type), in vitro translated from pHM6-HA-A1

Protein | in vitro cleavage of the biotin-labelled translation product by recombinant caspase (SDS-PAGE, Streptavidin-HRP)
B1 | The wild-type eIF5A1 is cleaved by caspases 2, 3, 6, 7, 8, 9, and 10 but not by caspase 1
B2 | The wild-type eIF5A1 is cleaved by caspases 2, 3, 6, 7, 8, 9, and 10
B3 | The wild-type eIF5A1 is cleaved by caspases 2, 3, 6, 7, 8, 9, and 10
B4 | The wild-type eIF5A1 is cleaved by caspases 2, 3, 6, 7, 8, 9, and 10
B5 | The wild-type eIF5A1 is cleaved by caspases 2, 3, 6, 7, 8, 9, and 10
B6 | The wild-type eIF5A1 is cleaved by caspases 2, 3, 6, 7, 8, 9, and 10
B7 | The wild-type eIF5A1 is cleaved by caspases 2, 3, 6, 7, 8, 9, and 10
B8 | The wild-type eIF5A1 is cleaved by caspases 2, 3, 6, 7, 8, 9, and 10

Molecular target: HA-tagged human eIF5A1D6E, in vitro translated from pHM6-HA-A1(D6E)

Protein | in vitro cleavage of the biotin-labelled translation product by recombinant caspase (SDS-PAGE, Streptavidin-HRP)
B3 | HA-tagged eIF5A1D6E and eIF5A1D6E/K50R are effectively cleaved in vitro by caspases 3, 7 and 8
B4 | are not efficiently cleaved by caspases 9 and 10
B5 | are not efficiently cleaved by caspases 9 and 10

Molecular target: HA-tagged human eIF5A1D6E/K50R, in vitro translated from pHM6-HA-A1(D6E/K50R)

Protein | in vitro cleavage of the biotin-labelled translation product by recombinant caspase (SDS-PAGE, Streptavidin-HRP)
B3 | HA-tagged eIF5A1D6E and eIF5A1D6E/K50R are effectively cleaved in vitro by caspases 3, 7 and 8
B4 | are not efficiently cleaved by caspases 9 and 10
B5 | are not efficiently cleaved by caspases 9 and 10
